From article PMC6703430, “Combining Mutations That Inhibit Two Distinct Steps of the ATP Hydrolysis Cycle Restores Wild-Type Function in the Lipopolysaccharide Transporter and Shows that ATP Binding Triggers Transport” (mBio, 2019)

Molecular target: the molecule itself
Test: crystal structure; ATP-bound His8-LptB^E163Q, 1.96 Å; hanging drops, reservoir 28% PEG 4000, 100 mM MES pH 6.75, 600 mM NaCl; space group C222(1)

B1: His8-LptB^E163Q (enzyme, E. coli, UniProt P0A9V1 1-241, looked up)
chain: MATLTAKNLAKAYKGRRVVEDVSLTVNSGEIVGLLGPNGAGKTTTFYMVVGIVPRDAGNIIIDDDDISLLPLHARARRGIGYLPQEASIFRRLSVYDNLMAVLQIRDDLSAEQREDRANELMEEFHIEHLRDSMGQSLSGGERRRVEIARALAANPKFILLDQPFAGVDPISVIDIKRIIEHLRDSGLGVLITDHNVRETLAVCERAYIVSQGHLIAHGTPTEILQDEHVKRVYLGEDFRL
notes: catalytically dead E163Q variant; the CTD is fully resolved up to L241, the last residue of LptB; A TEV protease cleavage site stands between the His8 tag and LptB; no TEV cleavage is described; also called His8TEV-LptB(E163Q); His-LptB(E163Q); source: E. coli KRX, pET28b(+)-His8TEV-LptB(E163Q), purified (Ni-NTA, gel filtration on Superdex 200); not shown: His8, N-terminal, kept
  stoichiometry N: 2
